Experimental data as given in paper PMC3469841.

Key:
[1] = biological target: P79S stefin B variant (human) (UniProt P04080); assay: SEC; KW-803 column (Shodex), HPLC with UV detection; 15 mM sodium acetate, 150 mM NaCl, 1 mM NaN3, pH lowered to 4.7; tetramer to dimers and monomers
[2] = biological target: P79S stefin B variant (human) (UniProt P04080); assay: SEC; KW-803 column (Shodex), HPLC with UV detection; 50 mM sodium phosphate, 100 mM NaCl, pH 7, 1 mM NaN3
[3] = biological target: Stefin B construct (C3S, with glutamate polymorph at position 31) (human) (UniProt P04080); assay: NMR (2D 1H15N HSQC amide peak intensities); apparent ratio of monomer to dimer from peaks of Q71, L73 and E76; fibrillization conditions, pH 4.7 and 10% TFE, 15 mM sodium acetate, 25°C; dimer to monomers
[4] = biological target: Stefin B construct (C3S, with glutamate polymorph at position 31) (human) (UniProt P04080); assay: NMR (2D 1H15N HSQC amide peak intensities); apparent ratio of monomer to dimer from peaks of Q71, L73 and E76; pH 6.0, 0% TFE; 200 uM 15N protein (monomer equivalents), 100 mM NaCl, 25°C; dimer to monomers; the paper says the two species never reach equilibrium

Row | Substance | stoichiometry N [1] | stoichiometry N [2] | ratio of monomer to dimer (monomer:dimer) [3] | ratio of monomer to dimer (monomer:dimer) [4]
1 | P79S stefin B variant (from UniProt P04080 1-98) (natural protein) | 2 | 4 | – | –
2 | Stefin B construct (C3S, with glutamate polymorph at position 31) (from UniProt P04080 4-98) (natural protein) | – | – | 2 | 1
